Target: GFP-Hace1 (HECT domain and Ankyrin repeat Containing E3 ubiquitin-protein ligase 1) (UniProt Q8IYU2)
Chain of UniProt Q8IYU2 (Q8IYU2 whole entry, the tested form may be a part): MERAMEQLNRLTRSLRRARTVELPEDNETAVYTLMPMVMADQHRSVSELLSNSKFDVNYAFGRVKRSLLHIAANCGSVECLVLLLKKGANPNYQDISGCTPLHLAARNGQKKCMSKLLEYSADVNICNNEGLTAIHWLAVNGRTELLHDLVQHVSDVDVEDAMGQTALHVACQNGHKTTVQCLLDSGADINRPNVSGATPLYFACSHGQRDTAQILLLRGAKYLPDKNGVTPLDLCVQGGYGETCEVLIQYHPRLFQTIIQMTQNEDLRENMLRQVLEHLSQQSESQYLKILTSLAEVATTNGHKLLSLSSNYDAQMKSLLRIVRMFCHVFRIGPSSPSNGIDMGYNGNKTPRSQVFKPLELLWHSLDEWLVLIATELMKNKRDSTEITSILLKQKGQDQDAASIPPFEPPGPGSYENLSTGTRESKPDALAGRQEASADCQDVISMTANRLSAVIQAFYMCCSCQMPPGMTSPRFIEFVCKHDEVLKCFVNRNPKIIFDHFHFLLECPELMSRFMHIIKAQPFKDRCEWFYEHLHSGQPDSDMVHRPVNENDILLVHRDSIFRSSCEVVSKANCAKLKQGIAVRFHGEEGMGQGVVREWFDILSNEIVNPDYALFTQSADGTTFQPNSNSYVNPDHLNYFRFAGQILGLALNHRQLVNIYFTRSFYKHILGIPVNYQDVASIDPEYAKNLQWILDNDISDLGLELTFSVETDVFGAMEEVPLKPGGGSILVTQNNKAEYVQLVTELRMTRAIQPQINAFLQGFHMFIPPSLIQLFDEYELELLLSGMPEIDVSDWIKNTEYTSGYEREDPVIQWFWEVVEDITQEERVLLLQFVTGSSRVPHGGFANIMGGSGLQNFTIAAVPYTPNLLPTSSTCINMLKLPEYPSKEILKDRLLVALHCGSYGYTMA

Question: Which fraction of the total Rac1 pool bound by Hace1 does the source give for “Rac1 (from UniProt P63000 1-192) (natural protein; other documents disagree on this pair)” here?
Answer: The fraction of the total Rac1 pool bound by Hace1 was < 10%.

Reference: article PMC3759041
